Assay results: article PMC7994332, “A Bifan Motif Shaped by ArsR1, ArsR2, and Their Cognate Promoters Frames Arsenic Tolerance of Pseudomonas putida” (Frontiers in Microbiology, 2021)

How the values were obtained:
[1] = tested on: 6His-ArsR1 (Pseudomonas putida KT2440); experiment: EMSA; conditions: no arsenite; 'gross KD'; EMSA: TRRG buffer (20 mM Tris-HCl pH 7.5, 50 mM KCl, 2 mM beta-mercaptoethanol, 10% glycerol), BSA, 25 ug/ml herring sperm DNA, 0.3 nM probe, 20 min 30 C …
[2] = tested on: 6His-ArsR2 (Pseudomonas putida KT2440); experiment: EMSA; conditions: no arsenite; 'gross KD'; EMSA: TRRG buffer (20 mM Tris-HCl pH 7.5, 50 mM KCl, 2 mM beta-mercaptoethanol, 10% glycerol), BSA, 25 ug/ml herring sperm DNA, 0.3 nM probe, 20 min 30 C …
[3] = biological target: the molecule itself; experiment: AUC; sedimentation velocity, 20°C, 48,000 rpm, 20 mM NaH2PO4, 100 mM KCl, 2 mM β-mercaptoethanol, pH 8.0, with or without 2 mM arsenite; data shown for 20 μM protein (methods: 42 μM 6His-ArsR1, 36 μM 6His-ArsR2); s = 2.1 ± 0.1 S

Molecule	stoichiometry N [3]	also measured
Pars1 probe		Kd [1]: 200 nM
Pars2 probe		Kd [2]: 500 nM
6His-ArsR2 (natural protein, Pseudomonas putida KT2440, UniProt Q88JD1 1-115, looked up, ArsR2, As(III)-responsive transcriptional repressor of the ars2 operon (SmtB/ArsR family), Pseudomonas putida KT2440; protein of 115 amino acids; 364-bp PCR fragment that includes the arsR2 gene cloned BamHI/HindIII into pQE32; Theoretical monomer mass with tag 14,519 Da; source: E. coli M15 (pREP4, pQE32-ArsR2), purified (Ni-NTA agarose, dialysed)) MITPPDVFKSLSDETRARATLLIASLGELCVCELMCALNDSQPKISRHLAQLRSNGMLLDRRQGQWVYYRLNPELPSWVHEMLQVTLQANSQWLADNALRLKNMDGRPVRDSVCC	2	
6His-ArsR1 (natural protein, Pseudomonas putida KT2440, UniProt Q88LK1 11-128, looked up, ArsR1, As(III)-responsive transcriptional repressor of the ars1 operon (SmtB/ArsR family), Pseudomonas putida KT2440; protein of 118 amino acids; 373-bp PCR fragment that includes the arsR1 gene cloned BamHI/HindIII into pQE32; Theoretical monomer mass with tag 14,869 Da; source: E. coli M15 (pREP4, pQE32-ArsR1), purified (Ni-NTA agarose, dialysed)) MREILTPPIVFKCLADDTRARMTLLIAREGELCVCELTHALELSQPKISRHLAQLREAGILMDRRKGQWVYYRLHPEVPQWVDAMLKGVVDANQEWLSPDALRLAEMGERPQSPVACA	2	
